Experimental data taken from publication PMC3305813 (Neuron, 2012).

T1: recombinant CYSL-1 (C. elegans, UniProt Q93244 1-341)
T1 sequence (looked up): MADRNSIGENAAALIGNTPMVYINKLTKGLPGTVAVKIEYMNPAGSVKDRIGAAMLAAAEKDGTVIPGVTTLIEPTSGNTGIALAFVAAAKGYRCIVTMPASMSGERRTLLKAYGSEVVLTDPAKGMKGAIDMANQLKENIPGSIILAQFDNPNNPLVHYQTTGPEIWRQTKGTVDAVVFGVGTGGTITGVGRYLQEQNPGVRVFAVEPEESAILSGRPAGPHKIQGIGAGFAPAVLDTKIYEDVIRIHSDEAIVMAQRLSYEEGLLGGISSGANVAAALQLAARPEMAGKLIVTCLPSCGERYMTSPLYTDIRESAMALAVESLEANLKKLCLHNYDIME


Assays:
[1] = target: CYSL-1 (Caenorhabditis elegans, UniProt Q93244, R259K); experiment: O-acetylserine sulfhydrylase assay; format: biochemical; settings: co-substrate sulfide
[2] = target: T1, recombinant CYSL-1; experiment: other fluorescence titration

CYSL-1, sequence (Q93244 whole entry R259K): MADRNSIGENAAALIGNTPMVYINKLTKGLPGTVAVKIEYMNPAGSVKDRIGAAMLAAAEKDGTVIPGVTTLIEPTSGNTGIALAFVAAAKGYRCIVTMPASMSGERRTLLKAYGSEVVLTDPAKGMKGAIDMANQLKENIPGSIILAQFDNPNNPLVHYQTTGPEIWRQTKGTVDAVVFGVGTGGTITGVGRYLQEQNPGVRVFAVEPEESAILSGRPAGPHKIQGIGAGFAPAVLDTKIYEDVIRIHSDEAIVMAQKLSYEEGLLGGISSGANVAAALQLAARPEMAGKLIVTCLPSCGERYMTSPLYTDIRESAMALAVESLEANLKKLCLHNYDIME

| Molecule | O-acetylserine sulfhydrylase assay [1] | binding result [2] |
| --- | --- | --- |
| CC(=O)OC[C@H](N)C(=O)O [OAS] | exhibited levels of OAS sulfhydrylase activity similar to that of wild-type CYSL-1 | – |
| GLPPPPSTNPEYYI (peptide, UniProt G5EBV0 710-723, looked up) [EGL-9 C-terminal peptide, last 14 residues] | – | binds |
| PPSTNPEYYI (peptide, UniProt G5EBV0 714-723, looked up) [EGL-9 C-terminal peptide, last 10 residues] | – | binds |
